Laboratory results reported in paper PMC12219266, “The molecular basis for acetylhistidine synthesis by HisAT/NAT16” (Nature Communications, 2025).

T1: NAT16 (HisAT) (Homo sapiens, UniProt Q8N8M0)
T1 construct: full length (369 aa), C-terminal 6xHis tag kept, codon-optimised, pFastBac1, Sf9 insect cells
T1 sequence (Q8N8M0 1-369): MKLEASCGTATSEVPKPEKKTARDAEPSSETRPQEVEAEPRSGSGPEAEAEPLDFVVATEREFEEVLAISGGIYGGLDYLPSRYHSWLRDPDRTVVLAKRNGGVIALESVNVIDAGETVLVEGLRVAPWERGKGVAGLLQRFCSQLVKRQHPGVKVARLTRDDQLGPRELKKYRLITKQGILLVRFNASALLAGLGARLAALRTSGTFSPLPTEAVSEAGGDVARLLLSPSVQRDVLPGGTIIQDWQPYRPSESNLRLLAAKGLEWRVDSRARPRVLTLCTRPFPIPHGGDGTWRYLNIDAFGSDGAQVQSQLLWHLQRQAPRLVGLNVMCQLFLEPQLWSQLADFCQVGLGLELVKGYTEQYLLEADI


Legend:
NAT16 (HisAT) = target: T1, NAT16 (HisAT); test: DTNB real-time assay, Michaelis-Menten fit; assay type: biochemical; details: 50 µM Ac-CoA; 50 mM Na-phosphate pH 7.5, 37 °C
[1] = substrate: CC(=O)SCCNC(=O)CCNC(=O)[C@H](O)C(C)(C)COP(=O)(O)OP(=O)(O)OC[C@H]1O[C@@H](n2cnc3c(N)ncnc32)[C@H](O)[C@@H]1OP(=O)(O)O; test: DTNB real-time assay, initial rates, ternary complex model, secondary plots; assay type: biochemical, Homo sapiens; details: varied with L-histidine, 50 mM Na-phosphate pH 7.5, 100 mM NaCl, 1 mM EDTA, 37 °C
From the text: (§1) DTNB real-time assay, initial rates, ternary complex model, secondary plots on NAT16 (HisAT)

[2] = substrate: N[C@@H](Cc1c[nH]cn1)C(=O)O; test: as above; assay type: biochemical, Homo sapiens; details: varied with Ac-CoA, 50 mM Na-phosphate pH 7.5, 100 mM NaCl, 1 mM EDTA, 37 °C
From the text: as §1

Row | Molecule | apparent KM (NAT16 (HisAT)) | Km [1] [µM] | kcat [1] [s⁻¹] | kcat/Km [1] [M⁻¹ s⁻¹] | Km [2] [µM] | kcat [2] [s⁻¹] | kcat/Km [2] [M⁻¹ s⁻¹]
1 | N=C(N)NCCC[C@H](N)C(=O)O [arginine] | determined the apparent kcat and KM with arginine and lysine |  |  |  |  |  | 
2 | NCCCC[C@H](N)C(=O)O [lysine] | determined the apparent kcat and KM with arginine and lysine |  |  |  |  |  | 
3 | NAT16 (HisAT) (Homo sapiens) (protein, full length (369 aa), C-terminal 6xHis tag kept, codon-optimised, pFastBac1, Sf9 insect cells) MKLEASCGTATSEVPKPEKKTARDAEPSSETRPQEVEAEPRSGSGPEAEAEPLDFVVATEREFEEVLAISGGIYGGLDYLPSRYHSWLRDPDRTVVLAKRNGGVIALESVNVIDAGETVLVEGLRVAPWERGKGVAGLLQRFCSQLVKRQHPGVKVARLTRDDQLGPRELKKYRLITKQGILLVRFNASALLAGLGARLAALRTSGTFSPLPTEAVSEAGGDVARLLLSPSVQRDVLPGGTIIQDWQPYRPSESNLRLLAAKGLEWRVDSRARPRVLTLCTRPFPIPHGGDGTWRYLNIDAFGSDGAQVQSQLLWHLQRQAPRLVGLNVMCQLFLEPQLWSQLADFCQVGLGLELVKGYTEQYLLEADI |  | 19.8 ± 4.5 | 36.5 ± 4.6 | 1.9e+06 | 215 ± 53 | 36.5 ± 4.6 | 177000
